Laboratory results reported in patent US20230067770A1 (SHANGHAI HENLIUS BIOTECH, published 2023).

Experiments:
[1] = target: T1, Human CD137-his (human, UniProt Q07011 24-186); assay: BLI (Octet), second round, antibody captured on AHC sensor
T1 construct: Bought reagent; also called Human CD137-His (Sino Biological, 10041-H08H)
Protocol: (§1) Biolayer interferometry was used to measure the association and dissociation constants for the binding kinetics of the anti-CD137 antibodies. The binding kinetics was measured on a FortieBio Octet Red 96 at 30° C. and analyzed with the FortieBio Data Analysis 9.0 software. Anti-human-IgG Fc (AHC) sensor was used to capture the anti-CD137 antibodies or control antibodies. A kinetic buffer only well was set as a reference well for subtraction during data processing. Data were fitted with a 1:1 Langmuir model for association and dissociation using Rmax linked global fitting for each antibody-antigen binding. Human CD137-his is a recombinant CD137 antigen with a poly histidine tag fused to C-terminus of human CD137 antigen (Sino Biological, 10041-H08H). Cyno CD137-his is a recombinant CD137 antigen with a poly histidine tag fused to C-terminus of cynomolgus CD137 antigen (Sino Biological, 90847-K02H-100).

[2] = target: T2, mouse CD137 (mouse, UniProt P20334 24-187, limits assumed); assay: biolayer interferometry (Octet Red 96), antibody captured on AHC sensor
T2 sequence (looked up): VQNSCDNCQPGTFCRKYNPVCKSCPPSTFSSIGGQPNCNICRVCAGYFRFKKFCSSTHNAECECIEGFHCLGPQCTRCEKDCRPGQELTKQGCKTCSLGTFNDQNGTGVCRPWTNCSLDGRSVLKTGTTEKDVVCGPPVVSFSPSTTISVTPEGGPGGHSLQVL

[3] = target: T1, Human CD137-his; assay: BLI (Octet Red 96), antibody captured on AHC sensor, 1:1 Langmuir fit
Protocol: as §1

[4] = target: T3, Cyno CD137-his (cynomolgus monkey, UniProt A9YYE7 24-186); assay: as above
T3 construct: Bought reagent; also called cynomolgus monkey CD137; cynomolgus CD137 (Sino Biological, 90847-K02H-100)
T3 sequence: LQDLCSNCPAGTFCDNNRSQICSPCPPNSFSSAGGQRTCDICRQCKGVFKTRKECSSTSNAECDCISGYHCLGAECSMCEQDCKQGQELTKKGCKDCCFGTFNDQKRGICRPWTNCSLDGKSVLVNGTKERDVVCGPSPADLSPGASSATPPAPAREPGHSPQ
Protocol: as §1

[5] = target: T1, Human CD137-his; assay: as above; remark: listed apart in the source
Protocol: (§2) Biolayer interferometry was used to measure the association and dissociation constants for the binding kinetics of bispecific antibodies. The binding kinetics was measured on a FortieBio Octet Red 96 at 30° C. and analyzed with the FortieBio Data Analysis 9.0 software. Anti-human-IgG Fc (AHC) sensor was used to capture the bispecific or control antibodies. Double binding was performed by association with the first antigen, then dissociation, and association with the second antigen, then dissociation. A regeneration cycle with 20 mM glycine, pH 1.5 was used between different antibody cycles. The 1×kinetic buffer (FortieBio) was used for baseline. Human CD137-His (Sino Biologicals Cat: 10041-H08H) and rhesus CD137-His protein (Sino Biologicals Cat: 90847-K08H) were diluted into kinetic buffer in a series of concentrations. A kinetic buffer only well was set as a reference well for subtraction during data processing. Data were fitted with a 1:1 Langmuir model for association and dissociation using Rmax linked global fitting for each antibody-antigen binding. Human CD137-his is a recombinant CD137 protein with a poly histidine tag fused to C-terminus of human CD137 antigen (Sino Biological, 10041-H08H). Human EGFR-his is a recombinant EGFR protein with a poly histidine tag fused to C-terminus of human EGFR antigen (Acro Biosystem, EGR-H5222-100 ug).

[6] = target: T4, Human EGFR-his (human, UniProt P00533 25-645); assay: as above
T4 construct: Bought reagent; also called EGFR-His (Acro Biosystem, EGR-H5222-100 ug)
Protocol: as §2

B1: Anti-CD137 2-9 IgG2 (antibody, V domains shown)
VH: QVQLVQSGAEVKKPGASVKASCKASGFNIQDTYIHWVRQAPGQGLEWMGRIDPANGNSEYAQKFQGRVTMTRDTSTSTVYMELSSLRSEDTAVYYCTTGNLHYALMDYWGQGTSVTVSS
VL: DIQMTQSPSSVSASVGDRVTITCKASQPINTYLSWYQQKPGKAPKLLIYRVNRKVDGVPSRFSGSGSGTDFTLTISSLQPEDFATYYCLQYLDFPYTFGGGTKLEIKR
notes: also called clone 2-9 IgG2 wt; 2-9 IgG2 wildtype
A Kd [1] of 5.5 nM, a koff [1] of 0.000314 s⁻¹ and a kon [1] of 57100 M⁻¹ s⁻¹ were found for B1 in this work. For the same binder, the binding result [2] was “no binding”, the Kd [3] was 9.33 nM and the koff [3] was 0.000869 s⁻¹. It also gave a kon [3] of 93100 M⁻¹ s⁻¹, a Kd [4] of 2.76 nM and a koff [4] of 0.000712 s⁻¹. It also gave a kon [4] of 258000 M⁻¹ s⁻¹, a Kd [5] of 4.52 nM and a koff [5] of 0.000299 s⁻¹. It also gave a kon [5] of 66200 M⁻¹ s⁻¹.

B2: Anti-CD137 scFv x anti-EGFR IgG1 HCC (bispecific antibody)
heavy: not shown
light: EIVLTQSPATLSLSPGERATLSCRASQSIGTNIHWYQQKPGQAPRLLIKYASESISGIPARFSGSGSGTDFTLTISSLEPEDFAVYYCQQNNNWPTSFGGGTKVEIKRTVAAPSVFIFPPSDEQLKSGTASVVCLLNNFYPREAKVQWKVDNALQSGNSQESVTEQDSKDSTYSLSSTLTLSKADYEKHKVYACEVTHQGLSSPVTKSFNRGEC
notes: The tie rests on the label only; also called 2-9scFv-αEGFR2-HC-C; anti-CD137×EGFR bispecific antibody
A Kd [5] of 6.25 nM, a koff [5] of 0.000116 s⁻¹ and a kon [5] of 18600 M⁻¹ s⁻¹ were found for B2 in this work. The Kd [6] was 2.45 nM, the koff [6] was 0.000991 s⁻¹ and the kon [6] was 404000 M⁻¹ s⁻¹.
